Patent publication US20120251571, “RNASE L-MEDIATED CLEAVAGE PRODUCTS AND USES […]” (The Cleveland Clinic Foundation, published 2012)

Tests used:
RIG-I full-length [1] = target: T1, RIG-I full-length (Homo sapiens, UniProt O95786 O95786:1-925); assay: EMSA; stable complex; 10 pmol protein, 6 pmol RNA, 20 mM Tris pH 8.0, 1.5 mM MgCl2, 37 C; conditions: tags: recombinant full-length (Saito et al. 2007, 2008); broken stem-loop with 5' and 3' ss overhangs
T1 sequence: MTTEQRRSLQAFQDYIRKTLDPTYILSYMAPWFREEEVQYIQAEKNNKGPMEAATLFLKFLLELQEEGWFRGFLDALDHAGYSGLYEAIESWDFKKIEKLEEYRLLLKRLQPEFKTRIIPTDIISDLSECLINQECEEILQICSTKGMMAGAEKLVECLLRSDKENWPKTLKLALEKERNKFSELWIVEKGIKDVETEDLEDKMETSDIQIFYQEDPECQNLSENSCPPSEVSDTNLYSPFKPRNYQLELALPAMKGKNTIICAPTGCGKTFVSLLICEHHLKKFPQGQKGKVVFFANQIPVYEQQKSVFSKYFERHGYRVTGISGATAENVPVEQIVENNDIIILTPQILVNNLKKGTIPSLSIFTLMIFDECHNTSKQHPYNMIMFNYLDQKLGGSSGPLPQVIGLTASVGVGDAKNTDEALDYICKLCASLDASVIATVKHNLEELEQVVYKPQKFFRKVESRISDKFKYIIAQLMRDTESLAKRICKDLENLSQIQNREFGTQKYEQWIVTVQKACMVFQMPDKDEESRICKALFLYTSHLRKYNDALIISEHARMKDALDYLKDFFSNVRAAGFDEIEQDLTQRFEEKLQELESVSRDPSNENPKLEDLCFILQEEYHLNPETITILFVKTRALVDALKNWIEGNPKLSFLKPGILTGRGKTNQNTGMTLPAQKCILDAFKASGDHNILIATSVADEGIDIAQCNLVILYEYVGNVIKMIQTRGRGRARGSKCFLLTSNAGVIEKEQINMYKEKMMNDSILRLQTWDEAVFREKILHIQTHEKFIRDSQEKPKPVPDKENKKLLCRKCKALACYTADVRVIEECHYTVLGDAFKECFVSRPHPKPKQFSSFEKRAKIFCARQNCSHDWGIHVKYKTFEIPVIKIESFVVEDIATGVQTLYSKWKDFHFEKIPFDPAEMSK

[2] = target: T2, N-RIG (RIG-I N-terminal polypeptide) (UniProt O95786 O95786:1-228); assay: EMSA; N-terminal polypeptide control; conditions: broken stem-loop with 5' and 3' ss overhangs
T2 sequence: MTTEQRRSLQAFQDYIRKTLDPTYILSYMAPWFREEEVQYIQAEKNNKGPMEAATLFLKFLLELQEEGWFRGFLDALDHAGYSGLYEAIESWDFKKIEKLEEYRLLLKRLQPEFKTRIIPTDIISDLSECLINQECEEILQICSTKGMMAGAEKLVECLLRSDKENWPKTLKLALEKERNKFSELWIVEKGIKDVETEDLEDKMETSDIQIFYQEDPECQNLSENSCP

RIG-I full-length [3] = target: T1, RIG-I full-length; assay: EMSA; stable complex; 1.5 mM MgCl2, 37 C; conditions: tags: recombinant full-length (Saito et al. 2007, 2008); broken stem-loop with 5' and 3' ss overhangs
Flag-RIG-I [4] = target: T3, Flag-RIG-I (Homo sapiens, UniProt O95786 O95786:1-925); assay: pulldown; eight clones; conditions: tags: FLAG, from 293T cells; broken stem-loop with 5' and 3' ss overhangs
T3 sequence: T1 sequence

Flag-RIG-I [5] = target: T3, Flag-RIG-I; assay: pulldown; two clones; conditions: tags: FLAG, from 293T cells
Flag-RIG-I [6] = target: T3, Flag-RIG-I; assay: pulldown; one clone; conditions: tags: FLAG, from 293T cells
Flag-RIG-I [7] = target: T3, Flag-RIG-I; assay: pulldown; six clones isolated; partial clones of the full fragment; conditions: tags: FLAG, from 293T cells
Flag-RIG-I [8] = target: T3, Flag-RIG-I; assay: pulldown; three clones; conditions: tags: FLAG, from 293T cells

B1: svRNA3 (5'-p3/3'-OH) (ssRNA)
RNA: AAGAACAAAGCUCAAACUCACUCCAAUAGCGGCCGCUGGCCGGCUGGACUUGUCCGGUUGGUUCACGGCUGGCUACAGCGGGGGAGACAUUUA
modifications: 5'-triphosphate, 3'-OH
Q: Does B1 bind (RIG-I full-length [1])?
A: Result: binds

Q: Does B1 bind [2]?
A: Result: no binding

B2: svRNA3 (5'-OH/3'-p) (ssRNA)
RNA: AAGAACAAAGCUCAAACUCACUCCAAUAGCGGCCGCUGGCCGGCUGGACUUGUCCGGUUGGUUCACGGCUGGCUACAGCGGGGGAGACAU
modifications: 5'-OH, 3'-phosphate
Q: What does the source list for B2?
A: binding result (RIG-I full-length [3]): binds; binding result (Flag-RIG-I [4]): binds; binding result [2]: no binding

B3: svRNA7 (ssRNA)
RNA: GGUCUCCUUACACCAGGCGCCAAGCAGAACAUCCAACUGAUCAACACCAACGGCAGUUGGCACAUCAAUAGCACGGCCUUGAAUUGCAAUGAAAGCCUUAACACCGGCUGGUUAGCAGGGCUCUUCUAUCAACACAAAUUCAACUCUUCAGGCUGUCCUGAGAGGUUGGCCAGCUGCCGACGCCUUACCGAUUUUGCCCAGGGCUGGGGUCCUA
Q: Does B3 bind (Flag-RIG-I [5])?
A: Result: binds

B4: svRNA8 (ssRNA)
RNA: GCUUGGGCCAGCCGACGGAAUGGUCUCCAAGGGGUGGAGGUUGCUGGCGCCCAUCACGGCGUACGCCCAGCAGACGAGAGGCCUCCUAGGGUGUAUA
Q: Does B4 bind (Flag-RIG-I [6])?
A: Result: binds

B5: svRNA9 (ssRNA)
RNA: B4 RNA
Q: Does B5 bind (Flag-RIG-I [6])?
A: Result: binds

B6: svRNA10 (ssRNA)
RNA: ACCUGGUCACGAGGCACGCCGAUGUCAUUCCCGUGCGCCGGCGAGGUGAUAGCAGGGGUAGCCUGCUUUCGCCCCGGCCCAUUUCCUACUUGAAAGGCUCCUCGGGGGGUCCGCUGUUGUGCCCCGCGGGACACGCCGUGGGCCUAUUCAGGGCCGCGGUGUGCACCCGUGGAGUGGCU
Q: Does B6 bind (Flag-RIG-I [6])?
A: Result: binds

B7: svRNA11 (ssRNA)
RNA: ACAGACUGGGCGCUGUUCAGAAUGAAGUCACCCUGACGCACCCAAUCACCAAAUACAUCAUGACAUGCAUGUCGGCCGACCUGGAGAUCGUCACGAGCACCUGGGUGCUCGUUGGCGGCGUCCUGGCUGCUCUGGCCGCGUAUUGCCUGUCAACAGGCUGCGUGGUCAUAGUGGGCAGGAUU
Q: Does B7 bind (Flag-RIG-I [6])?
A: Result: binds

B8: svRNA12 (ssRNA)
RNA: UGCACCGCCAACCAUGACUCCCCUGACGCCGAGCUCAUAGAGGCUAACCUCCUGUGGAGGCAGGAGAUGGGCGGCAACAUCACCAGGGUUGAGUCAGAGAACAAAGUGGUGAUUCUGGACUCCUUCGAUCCGCUUGUGGCAGAGGAGGAUGAGCGGGAGGUCUCCGUACCUGCAGAAAUUCUGCGGAAGUCUCGGAGAUUCGCCCGGGCCCUGCCCGUCUGGGCGCGGCCGGACUACAACCCCCCGCUA
Q: Does B8 bind (Flag-RIG-I [5])?
A: Result: binds

B9: svRNA13 (ssRNA)
RNA: CCACCUCCACGGUCCCCUCCUGUGCCUCCGCCUCGGAAAAAGCGUACGGUGGUCCUCACCGAAUCAACCCUA
Q: Does B9 bind (Flag-RIG-I [6])?
A: Result: binds

B10: svRNA14 (ssRNA)
RNA: CCCGUGACCCUACAACCCCCCUCGCGAGAGCCGCGUGGGAGACAGCAAGACACACUCCAGUCAAUUCCUGGCUAGGCAACAU
Q: Does B10 bind (Flag-RIG-I [6])?
A: Result: binds

B11: svRNA15 (ssRNA)
RNA: B10 RNA
Q: Does B11 bind (Flag-RIG-I [5])?
A: Result: binds

Q: Does UGUCCACCGGCCUCAUCCACCUCCACCAGAACAUU (ssRNA) [svRNA1] bind (Flag-RIG-I [7])?
A: Result: binds

Q: Does UGUUGCUGCAACGCUGGGCUUUGGUGCUU (ssRNA) [svRNA2] bind (Flag-RIG-I [8])?
A: Result: binds

Q: Does ACCUUCUCUCCCAGGCGCCACUGGACGACGCAAGACUGCAAU (ssRNA) [svRNA5] bind (Flag-RIG-I [6])?
A: Result: binds

B12: svRNA6 (ssRNA)
RNA: ACGGGUCAUCGCAUGGCAUGGGAUAUGAUGAUGAACUGGUCCCCUACGGCAGCGUUGGUGGUAGCUCAGCUGCUCCGGAUCCCACAAGCCAUCAUGGACAUGAUCGCUGGUGCUCACUGGGGAGUCCUGGCGGGCAUAGCGU
Q: Does B12 bind (Flag-RIG-I [5])?
A: Result: binds
